Patent US20040146511A1

What was measured:
human Factor IX (human) = human Factor IX (human) (UniProt P00740); experiment: cell-based or functional assay
[1] = biological target: Recombinant human Factor IX (rhFIX, Genetics Institute) (human) (UniProt P00740); experiment: titration microcalorimetry; 106 uM FIX injected into 2 uM mAb
Recombinant human Factor IX (rhFIX, Genetics Institute) (human), sequence (P00740 47-461 limits assumed): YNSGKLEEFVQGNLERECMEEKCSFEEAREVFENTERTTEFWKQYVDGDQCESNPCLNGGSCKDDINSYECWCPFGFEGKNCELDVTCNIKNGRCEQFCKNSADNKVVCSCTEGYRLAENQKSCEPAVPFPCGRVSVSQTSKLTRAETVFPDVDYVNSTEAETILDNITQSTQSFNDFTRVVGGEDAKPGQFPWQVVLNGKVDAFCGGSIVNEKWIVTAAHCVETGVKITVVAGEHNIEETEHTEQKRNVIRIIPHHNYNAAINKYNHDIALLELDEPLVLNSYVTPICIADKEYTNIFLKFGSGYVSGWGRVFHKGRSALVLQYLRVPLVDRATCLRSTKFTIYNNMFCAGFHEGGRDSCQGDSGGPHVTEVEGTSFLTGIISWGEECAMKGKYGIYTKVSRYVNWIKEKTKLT

human Factor IX (human), sequence (P00740 47-461 limits assumed): as above

| aPTT at saturating concentrations (human Factor IX (human)) | aPTTmax/aPTTnormal x 100 % (human Factor IX (human)) | molar binding ratio (FIX per mAb) [1] | Binder |
| --- | --- | --- | --- |
| 90 s | 350% | – | murine anti-Factor IX monoclonal antibody BC2 (antibody, from a related filing, mouse IgG2a, V domains shown) VH: QIQLVQSGPELKKPGETVKISCKASGYTFTNYGMNWVKQAPGKGLKWMGWINTRNGKSTYVDDFKGRFAFSLESSASTANLQIDNLKDEDTATYFCTREGNMDGYFPFTYWGQGTLVTVSA VL: QIVLSQSPAILSASPGEKVTMTCRASSSVNYMHWYQQKPGSSPKPWIYATSNLASGVPARFSGSGSGTSYSLTISRVEAEDAATYYCQQWSINPRTFGGGTKLEIKR |
| – | – | 2 FIX per mAb | humanized anti-Factor IX monoclonal antibody SB 249417 (antibody, V domains shown) VH: QVQLVQSGSELKKPGASVKVSCKASGYTFTNYGMNWVRQAPGQGLKWMGWINTRNGKSTYVDDFKGRFVFSLDSSVSTAYLQISSLKADDTAVYYCTREGNMDGYFPFTYWGQGTLVTVSS VL: QIVLTQSPSSLSASVGDRVTITCRASSSVNYMHWYQQKPGKAPKPWIYATSNLASGVPSRFSGSGSGTDYTFTISSLQPEDIATYYCQQWSINPRTFGQGTKVEIKR |
